Test results reported in patent US20210130473A1 (SILVERBACK THERAPEUTICS, published 2021).

T1: human ASGR1 (asialoglycoprotein receptor 1) on cells (human, UniProt P07306 1-291)
T1 construct: whole, on cells; also called HepG2 cells; CHO-S cells transfected with human ASGR1 full length DNA
T1 sequence (looked up): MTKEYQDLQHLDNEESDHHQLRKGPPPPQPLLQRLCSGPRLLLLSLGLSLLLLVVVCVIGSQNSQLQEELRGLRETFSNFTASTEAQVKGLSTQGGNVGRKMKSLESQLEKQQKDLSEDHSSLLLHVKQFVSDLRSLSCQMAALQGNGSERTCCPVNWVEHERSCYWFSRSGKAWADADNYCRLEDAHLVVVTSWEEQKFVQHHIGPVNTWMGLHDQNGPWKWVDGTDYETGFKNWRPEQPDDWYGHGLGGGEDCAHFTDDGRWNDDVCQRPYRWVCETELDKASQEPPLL


Columns and labels:
[1] = target: T1, human ASGR1 (asialoglycoprotein …); test: competition flow cytometry on CHO-S cells with human ASGR1; 200 nM F(ab')2 against 33 nM GalNac-hFc
[2] = target: T1, human ASGR1 (asialoglycoprotein …); test: Guava flow cytometry screen on HepG2 cells
[3] = target: T2, Cynomolgus macaque ASGR1 on CHO-S cells (Cynomolgus macaque); test: Guava flow cytometry on CHO-S cells expressing cynomolgus ASGR1
T2 construct: whole, on cells; also called Cynomologous ASGR1
Protocol: (§1) Anti-human ASGR1 antibodies of this disclosure were examined for cross-reactivity with Cynomolgus macaque and rat ASGR1. Briefly, sequence encoding Cynomolgus macaque or rat ASGR1 was transiently transfected into CHO-S cells. Transfected cells were before performing cell binding assay. A total of about 1.5×10⁴ transfected cells/well were added to 96-well V-bottom assay plate, incubated at 37° C., 5% CO2 for 48-72 hours, and then washed with culture medium before adding 100 μl of each ASGR1 antibody at different concentrations starting from 100 nM and 3-fold dilutions to a total of eight wells. The cells with antibody were incubated for 40 minutes at 4° C., then washed three times with 200 μl of fresh culture medium. To each well was added 50 μl PE conjugated goat anti-human Fc (SouthemBiotech) at 1:200 dilution in culture medium and then incubated at 4° C. for 20 minutes. After washing the plate once, the treated cells were resuspended in 200 μl culture medium and then the stained cells were analyzed on GUAVA® using Incyte software.

[4] = target: T1, human ASGR1 (asialoglycoprotein …); test: flow cytometry on HepG2 cells, anti-human IgG PE secondary, MFI (Geo Mean)
Protocol: Briefly, 5×10⁴ HepG2 cells/well were contacted with titrating concentrations of anti-ASGR1 antibodies in FACS Buffer (FB: PBS+2% FBS+1 mM CaCl₂)) for 30 minutes at 4° C. Cells were washed twice in FB, then incubated in anti-human IgG PE secondary for 30 minutes at 4° C. Cells were washed twice in FB, then analyzed by flow cytometry.

[5] = target: T2, Cynomolgus macaque ASGR1 on CHO-S cells; test: Guava flow cytometry on CHO-S cells expressing cynomolgus ASGR1 (repeat of Table 15)
Protocol: as §1

| Binder | % Blocking GalNac Binding [1] | also measured |
| --- | --- | --- |
| F(ab')2 fragment of G2D (F(ab')2) VH: EVQLQQSGPELVKPGASVKISCKASGYSFTGYYMHWVKQSHVKSLEWIGRINPNNGATNYNQNFKDKASLTVDKSSSTAYMEFHSLTSEDSAVYYCTSVNFYYWGQGTTLTVSS VL: DIKMTQSPSSMYASLGERVTITCKASQVINSYLSWFQQKPGKSPETLIYRANTLVDGVPSRFSGSGSGQDYSLTISSLEYEDLGIYYCLQYAEFPYTFGGGTKLEIK | -0.3% | – |
| F(ab')2 fragment of K2E (F(ab')2) VH: QVQLQQSAAELARPGASVKMSCKASGYTFTSYTMHWVKQRPGQGLEWIGYISPSSGYTEYNQKFKDKTTLTADKSSSTAYMQLSSLTSEDSAVYYCARKFDYWGQGTTLTVSS VL: DIKMTQSPSSMYASLGERVTITCKASQDINSYLSWFQQKPGKSPKTLIYRANRLVDGVPSRFSGSGSGQDFSLTISSLEYEDMGIYYCLQYDEFPFTFGSGTKLEIK | 10% | – |
| F(ab')2 fragment of hzH8K-1 (F(ab')2) VH: QVQLQESGPGLVKPSQTLSLTCTVSGGSISSDYAWNWIRQHPGKGLEWIGYRSYRGSTSYNPSLKSRVTISVDTSKNQFSLKLSSVTAADTAVYYCARRGYYGSSSHWYFDVWGQGTTVTVSS VL: DIQMTQSPSSLSASVGDRVTITCRASENIYSYLAWYQQKPGKAPKLLIYNAKTLAEGVPSRFSGSGSGTDFTLTISSLQPEDFATYYCQHHYGTPLTFGGGTKVEIK | 81.3% | – |
| hzL4L-5 (antibody, IgG1, V domains shown, IgG1, kappa) VH: QVQLQESGPGLVKPSQTLSLTCTVSGYSISSDYAWNWIRQHPGKGLEWIGYISYSGSTRYNPSLKSRISITRDTSKNQFSLKLSSVTAADTAVYYCARRYRYDEGYGMDYWGQGTTVTVSS VL: DIQMTQSPSSLSASVGDRVTITCRASENIYSNLAWYQQKPGKAPKLLIYAATNLADGVPSRFSGSGSGTDFTLTISSLQPEDFATYYCQHFWGTPPWTFGGGTKVEIK | – | binding result [2]: binds |
| F(ab')2 fragment of hzL4L-14 (F(ab')2) VH: QVQLQESGPGLVKPSQTLSLTCTVSGYSISSDYAWNWIRQHPGKGLEWIGYISYSGSTRYNPSLKSRVTITRDTSKNQFSLKLSSVTAADTAVYYCARRYRYDEGYGMDYWGQGTTVTVSS VL: DIQMTQSPSSLSASVGDRVTITCRASENIYSNLAWYQQKPGKAPKLLIYAATNLAEGVPSRFSGSGSGTDFTLTISSLQPEDFATYYCQHFWGTPPWTFGGGTKVEIK | 90.7% | – |
| hzL4L-2 (antibody, IgG1, V domains shown, IgG1, kappa) VH: QVQLQESGPGLVKPSQTLSLTCTVSGGSITSDYAWNWIRQHPGKGLEWIGYISYSGSTRYNPSLKSRISITRDTSKNQFSLKLSSVTAADTAVYYCARRYRYDEGYGMDYWGQGTTVTVSS VL: DIQMTQSPSSLSASVGDRVTITCRASENIYSNLAWYQQKPGKAPKLLIYAATNLADGVPSRFSGSGSGTDFTLTISSLQPEDFATYYCQHFWGTPPWTFGGGTKVEIK | – | binding result [2]: binds |
| ASGR1 mAb-C (antibody, V domains shown, control with CDRs of anti-ASGR1 antibody 4F3; mouse IgG2a or human IgG1 isotype by assay; also called 4F3) VH: not shown VL: SSELTQDPAVSVALGQTVRITCQGDSLRSYYASWYQQKPGQAPVLVIYGKNNRPSGIPDRFSGSSSGNTASLTITGAQAEDEADYYCNSLERIGYLSYVFGGGTKLTVL | – | EC50 [3]: 2.35 nM; EC50 (read off the curve) [4]: ~0.3 µg/mL; EC50 [5]: 2.35 nM |
| F(ab')2 fragment of ASGR1 mAb-C (F(ab')2, F(ab')2 fragment: two Fab arms joined at the hinge, with the Fc removed.) VH: not shown VL: SSELTQDPAVSVALGQTVRITCQGDSLRSYYASWYQQKPGQAPVLVIYGKNNRPSGIPDRFSGSSSGNTASLTITGAQAEDEADYYCNSLERIGYLSYVFGGGTKLTVL | -5.4% | – |
| F(ab')2 fragment of J4F (F(ab')2) VH: QVQLQQSGDDLVKPGASVKLSCKASGYTFTSYWINWIKQRPGQGLEWIGRIVPGSGSTYYNEMFKDKATLTVDTSSSTAYIQLSSLSSEDSAVYFCARKPNFDVWGAGTTVTVSS VL: DIVMTQSQKFMSTSVGDRVSVTCKASQNVGTNVAWYQQKPGQSPKAVIYSASYRFSGVPDRLTGSGSGTDFTLTITNVQSEDLAEYFCQQYNSYPLTFGAGTKLELK | -32.1% | – |
